Key:
[1] = molecular target: HLA-B*08:01; assay: IEDB peptide-MHC binding, purified MHC/competitive/radioactivity; filed as Kd, often an IC50 or EC50 that approximates it; ≥ and ≤ were set here for values at or beyond the usual limits of such assays
[2] = molecular target: HLA-B*46:01; assay: IEDB peptide-MHC binding, purified MHC/direct/fluorescence; filed as Kd, often an IC50 or EC50 that approximates it; ≥ and ≤ were set here for values at or beyond the usual limits of such assays; details: source organism: West Nile virus
[3] = molecular target: HLA-A*30:01; assay: IEDB peptide-MHC binding, purified MHC/competitive/radioactivity; filed as Kd, often an IC50 or EC50 that approximates it; ≥ and ≤ were set here for values at or beyond the usual limits of such assays
[4] = molecular target: HLA-A*02:01; assay: IEDB peptide-MHC binding, purified MHC/competitive/fluorescence; ≥ and ≤ were set here for values at or beyond the usual limits of such assays
[5] = molecular target: HLA-A*11:01; assay: IEDB peptide-MHC binding, purified MHC/competitive/radioactivity; filed as Kd, often an IC50 or EC50 that approximates it; ≥ and ≤ were set here for values at or beyond the usual limits of such assays; details: source organism: Dengue virus 4 Philippines/H241/1956
[6] = molecular target: HLA-A*03:01; assay: as above; details: source organism: Dengue virus 4 Philippines/H241/1956
[7] = molecular target: HLA-B*44:02; assay: as above
[8] = molecular target: HLA-A*31:01; assay: IEDB peptide-MHC binding, purified MHC/direct/fluorescence; filed as Kd, often an IC50 or EC50 that approximates it; ≥ and ≤ were set here for values at or beyond the usual limits of such assays
[9] = molecular target: HLA-A*03:01; assay: as above
[10] = molecular target: HLA-A*02:01; assay: as above
[11] = molecular target: HLA-B*15:01; assay: as above
[12] = molecular target: HLA-B*40:01; assay: as above; details: source organism: Influenza A virus (A/Hong Kong/1131/1998(H1N1))
[13] = molecular target: HLA-A*01:01; assay: as above
[14] = molecular target: HLA-B*58:01; assay: as above; details: source organism: SARS-CoV1
[15] = molecular target: HLA-B*27:05; assay: as above; details: source organism: SARS-CoV1
[16] = molecular target: HLA-A*30:02; assay: IEDB peptide-MHC binding, purified MHC/competitive/radioactivity; filed as Kd, often an IC50 or EC50 that approximates it; ≥ and ≤ were set here for values at or beyond the usual limits of such assays
[17] = molecular target: HLA-A*01:01; assay: as above
[18] = molecular target: HLA-A*11:01; assay: IEDB peptide-MHC binding, purified MHC/direct/fluorescence; filed as Kd, often an IC50 or EC50 that approximates it; ≥ and ≤ were set here for values at or beyond the usual limits of such assays; details: source organism: SARS-CoV1
[19] = molecular target: HLA-A*02:02; assay: IEDB peptide-MHC binding, purified MHC/competitive/radioactivity; filed as Kd, often an IC50 or EC50 that approximates it; ≥ and ≤ were set here for values at or beyond the usual limits of such assays; details: source organism: Vaccinia virus WR
[20] = molecular target: HLA-A*02:03; assay: as above; details: source organism: Vaccinia virus WR
[21] = molecular target: HLA-A*02:06; assay: as above; details: source organism: Vaccinia virus WR
[22] = molecular target: HLA-A*69:01; assay: IEDB peptide-MHC binding, purified MHC/direct/fluorescence; filed as Kd, often an IC50 or EC50 that approximates it; ≥ and ≤ were set here for values at or beyond the usual limits of such assays; details: source organism: Rickettsia prowazekii
[23] = source organism: Vaccinia virus Copenhagen
[24] = source organism: Vaccinia virus WR
[25] = source organism: Dengue virus 1 Brazil/97-11/1997
[26] = source organism: Dengue virus 4 Philippines/H241/1956
[27] = source organism: Zaire ebolavirus
[28] = source organism: Coxiella burnetii
[29] = source organism: Salmonella enterica subsp. enterica serovar Typhimurium
[30] = source organism: Salmonella enterica
[31] = source organism: Sudan ebolavirus
[32] = source organism: Dengue virus 4 Dominica/814669/1981
[33] = source organism: Brucella melitensis

## LFLRRRCPL
[1]; [23]
  Kd: 0.125 nM

## LLKMPFRMV
[1]; [24]
  Kd: 7.12 nM

## LLVAPAYSF
[2]
  Kd: ≥ 20000 nM

## LSIVSLFPLC
[3]; [25]
  Kd: 801 nM

## MLIGIEILN
[4]; [24]
  IC50: 554 nM

## MLKLQKCVM
[1]; [24]
  Kd: 9.25 nM

## MSLRSTIIK
[3]; [24]
  Kd: 37.2 nM

## MTLMKGASK
[5]
  Kd: 143 nM
[3]; [26]
  Kd: 1520 nM
[6]
  Kd: 18 nM

## NEMVLLTMK
[7]; [25]
  Kd: 865 nM

## PLGVIHNST
[4]; [27]
  IC50: ≥ 120000 nM

## PTWFGISFR
[8]; [28]
  Kd: 209 nM
[9]; [28]
  Kd: ≥ 20000 nM

## QAERTGEPDY
[3]; [26]
  Kd: 6210 nM

## QLCDEITIL
[10]; [29]
  Kd: 744 nM
[11]; [29]
  Kd: 1200 nM

## REKIDGVKL
[12]
  Kd: 46.9 nM

## RFLTHYFTK
[13]; [28]
  Kd: ≥ 20000 nM

## RKKARSTPF
[1]; source organism: Dengue virus 2 Jamaica/1409/1983
  Kd: 413 nM

## RLKMDKLEL
[1]; source organism: Dengue virus 3 Martinique/1243/1999
  Kd: 556 nM

## RLYYDSMSY
[14]
  Kd: 778 nM
[10]; source organism: SARS-CoV1
  Kd: ≥ 22800 nM
[13]; source organism: SARS-CoV1
  Kd: 7950 nM
[8]; source organism: SARS-CoV1
  Kd: 6940 nM
[15]
  Kd: 4810 nM
[11]; source organism: SARS-CoV1
  Kd: 130 nM

## RNIARHLAL
[1]; [24]
  Kd: 3.24 nM

## RPQPMEHKY
[16]; [25]
  Kd: 134 nM

## RRLTSREVLL
[1]; [25]
  Kd: 5480 nM

## RSQSSTIIV
[3]; [24]
  Kd: 559 nM

## RSWQPPQPR
[8]; [30]
  Kd: 35 nM
[9]; [30]
  Kd: ≥ 20000 nM

## RTICTLPYL
[3]; [24]
  Kd: 0.738 nM

## RTPQDNQLIY
[17]; [26]
  Kd: 919 nM
[16]; [26]
  Kd: 198 nM

## RYRMHPMSK
[3]; [24]
  Kd: 0.0676 nM

## SFKKNGAIK
[3]; [25]
  Kd: 357 nM

## SFRRFVNKL
[1]; [23]
  Kd: 1380 nM

## SLKIMIQSM
[1]; [24]
  Kd: 2.48 nM

## SPMPRHHSI
[1]; [24]
  Kd: 1110 nM

## SRRYRCSFA
[1]; [24]
  Kd: 52.3 nM

## SSPGPTTEA
[4]; [31]
  IC50: 14600 nM

## TEQMAPHHKI
[7]; [26]
  Kd: 41.7 nM

## TSSDTYACW
[14]
  Kd: 14.5 nM
[18]
  Kd: 19400 nM

## TTLTASLVML
[17]; [32]
  Kd: 1050 nM

## VKVLRPTPKG
[3]; [26]
  Kd: 9230 nM

## VKVLRPTPRG
[3]; [32]
  Kd: 6080 nM

## VLALYSPPLI
[19]
  Kd: 15.7 nM
[20]
  Kd: 101 nM
[21]
  Kd: 868 nM

## VMKRYSAPSE
[3]; [32]
  Kd: 6330 nM

## VTAKWLWGFL
[17]; [25]
  Kd: 17700 nM

## VTTNNLLEQL
[19]
  Kd: 4690 nM
[20]
  Kd: 17900 nM
[21]
  Kd: 5910 nM

## VVGKPYKEV
[10]; source organism: Rickettsia prowazekii
  Kd: 1960 nM
[22]
  Kd: 605 nM

## WLTPFEKEFT
[19]
  Kd: 2370 nM
[20]
  Kd: 1550 nM
[21]
  Kd: ≥ 30800 nM

## WMARRHAER
[8]; [33]
  Kd: 13.9 nM
[9]; [33]
  Kd: ≥ 20000 nM

## YIPPCQCTV
[19]
  Kd: 196 nM
[20]
  Kd: 445 nM
[21]
  Kd: 92.5 nM

## YKLFLESGA
[4]; [27]
  IC50: ≥ 209000 nM

## YLFIRKNVI
[1]; [23]
  Kd: 0.706 nM

## YTRPEIDVL
[19]
  Kd: 115 nM
[20]
  Kd: 73.6 nM
[21]
  Kd: 154 nM

## YVHKAQGTG
[4]; [31]
  IC50: ≥ 236000 nM

## YVPSAEDNYL
[19]
  Kd: ≥ 70000 nM
[20]
  Kd: ≥ 70400 nM
[21]
  Kd: ≥ 69800 nM
